The target of data set [1] is T1, TDP-43 RRM1 (hRRM1) WT (human, UniProt Q13148 101-191). Briefly: filter binding; Filter binding: 50 mM phosphate, 50 mM imidazole, 10 mM beta-mercaptoethanol, pH 7.5, room temperature, 30 min, 10 pmol 32P-labelled nucleic acid. As to conditions: protein: recombinant; tags: N-terminal His (pQE30); label: 5'-32P.
Data set [2] addresses T2, TDP-43 hN12 WT (human, UniProt Q13148 1-259). The data set can be described thus: filter binding; 2 uM protein; Filter binding: 50 mM phosphate, 50 mM imidazole, 10 mM beta-mercaptoethanol, pH 7.5, room temperature, 30 min, 10 pmol 32P-labelled nucleic acid. The note with it: protein: recombinant; chain copies: 2.
Data set [3] has as its target T1, TDP-43 RRM1 (hRRM1) WT. Briefly: crystal structure 2.75 A; Filter binding: 50 mM phosphate, 50 mM imidazole, 10 mM beta-mercaptoethanol, pH 7.5, room temperature, 30 min, 10 pmol 32P-labelled nucleic acid. As to conditions: protein: recombinant; tags: N-terminal His (pQE30).
The target in data set [4] is T2, TDP-43 hN12 WT. Briefly: filter binding; Filter binding: 50 mM phosphate, 50 mM imidazole, 10 mM beta-mercaptoethanol, pH 7.5, room temperature, 30 min, 10 pmol 32P-labelled nucleic acid. As to conditions: protein: recombinant; chain copies: 2; label: 5'-32P.

One may read the Kd as the concentration at which binding is half-saturated.

T2 sequence (Q13148 1-259): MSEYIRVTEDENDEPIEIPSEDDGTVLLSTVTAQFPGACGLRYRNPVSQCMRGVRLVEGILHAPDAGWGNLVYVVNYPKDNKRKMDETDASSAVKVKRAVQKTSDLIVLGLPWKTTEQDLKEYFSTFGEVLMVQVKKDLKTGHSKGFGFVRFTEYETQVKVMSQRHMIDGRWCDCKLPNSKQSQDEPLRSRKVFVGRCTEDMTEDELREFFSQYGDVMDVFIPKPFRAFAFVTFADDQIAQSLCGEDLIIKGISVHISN
T1 sequence (Q13148 101-191): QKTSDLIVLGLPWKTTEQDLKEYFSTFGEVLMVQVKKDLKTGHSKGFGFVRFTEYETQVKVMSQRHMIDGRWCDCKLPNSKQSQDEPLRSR

For the molecule TGTGTGTGTGTGTGTGTGTGTGTGTGTGTG (ssDNA) [(TG)15 DNA], the Kd in data set [1] was 20.6 ± 1.8 nM. As for CACACACACACA (ssRNA) [(CA)6 RNA], the binding signal in data set [2] amounted to 0.6 ± 1 % bound. GTTGAGCGTT (ssDNA, 2'-methylseleno-adenosine at A5) [10-nt Se-labelled ssDNA]: the binding result in data set [3] is “binds”. As to CGCGUGCCCCUG (ssRNA) [PS2], the binding signal in data set [2] amounted to 6.2 ± 0.8 % bound.

As for AGAGUGAAAAUG (ssRNA) [PS1], the binding signal in data set [2] came out at 23.1 ± 0.8 % bound. As to UGUGUGUGUGUG (ssRNA) [(UG)6 RNA], the binding signal in data set [2] stood at 67.9 ± 1.9 % bound. Regarding UGUGUGUGUGUGUGUGUGUGUGUGUGUGUG (ssRNA) [(UG)15 RNA], the Kd in data set [4] was determined as 5.3 ± 1.2 nM.

(Values after article PMC3985631, “The crystal structure of TDP-43 RRM1-DNA complex reveals the specific recognition for UG- and TG-rich nucleic acids”.)
